The values below come from US20150355179.

In series [1] the test system is GST-CDKACTH1 labelled with Cy3 (CDKACTH1-Cy3).
In series [2] the test system is CDKACT-WWH1 biosensor labelled with Cy5.
For series [3], the system named is CDKACT-WWH1 biosensor labelled with Cy3.
CDKACT-WWH1 biosensor labelled with Cy3, sequence (chain, as listed by the source): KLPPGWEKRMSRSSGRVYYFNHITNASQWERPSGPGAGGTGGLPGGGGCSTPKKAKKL

unlabelled GST-CDKACTH1, sequence (chain, as listed by the source): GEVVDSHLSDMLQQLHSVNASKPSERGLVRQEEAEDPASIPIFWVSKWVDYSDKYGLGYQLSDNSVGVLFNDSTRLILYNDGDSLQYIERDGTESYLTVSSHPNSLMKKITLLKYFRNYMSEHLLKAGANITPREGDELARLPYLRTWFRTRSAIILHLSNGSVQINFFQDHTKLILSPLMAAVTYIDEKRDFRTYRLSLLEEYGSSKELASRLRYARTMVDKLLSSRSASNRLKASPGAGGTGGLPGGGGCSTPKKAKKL

Consider “recombinant CDK1/Cyclin B (GST-CDK1/CIV Cyclin B)”, for which the “real-time fluorescence kinase assay (Cy3 fluorescence)” value in series [1] is “CDK1/Cyclin B indeed phosphorylated CDKACTH1, however in the same conditions as CDK2/Cyclin A it did not induce the same response”. Besides, in the series with unlabelled GST-CDKACTH1, the “radioactive kinase assay (phosphorylation, 30 min at 30 C)” value was “CDKACT-H1 is phosphorylated by GST-CDK2/Cyclin A and GST-CDK1-Cyclin B in a standard kinase assay”.
With “recombinant active CDK2/Cyclin A (GST-CDK2/CIV complexed with His-Cyclin A)”, in series [2], the “real-time fluorescence kinase assay (Cy5 fluorescence)” value is “CDKACTWWH1, reports on CDK2/CyclinA activity, through significant changes in fluorescence enhancement”. The “real-time fluorescence kinase assay (Cy3 fluorescence)” value in series [1] was “Both CDKACTH1 and CDKACTWWH1 report on CDK2/CyclinA activity”; in series [3] it was “Both CDKACTH1 and CDKACTWWH1 report on CDK2/CyclinA activity, however CDKACTWWH1 yields greater changes in fluorescence enhancement”. In addition, the “competition in the fluorescence kinase assay (phosphorylation of CDKACTH1-Cy3)” value in the series on unlabelled GST-CDKACTH1 was “histone and unlabelled sensor prevented full phosphorylation of CDKACTH1”; in the series with histone H1 it was “histone and unlabelled sensor prevented full phosphorylation of CDKACTH1”. In addition, in the series on unlabelled GST-CDKACTH1, the “radioactive kinase assay (phosphorylation, 30 min at 30 C)” value is “CDKACT-H1 is phosphorylated by GST-CDK2/Cyclin A and GST-CDK1-Cyclin B in a standard kinase assay”.
